Assay results as given in FireProtDB (doi:10.1016/s0022-2836(03)00725-3).
Where “and” joins values, the source holds several entries; their conditions need not be identical. Equal values may be shown once.

Conditions: Escherichia coli (strain K12), pH 7.4, Thermal, DSC, sodium phosphate 10 mM, transition: 3, reversible: yes, whole UniProt chain shown

B1: DNA-binding protein HU-alpha wild type, P0ACF0 (protein)
chain: MNKTQLIDVIAEKAELSKTQAKAALESTLAAITESLKEGDAVQLVGFGTFKVNHRAERTGRNPQTGKEIKIAAANVPAFVSGKALKDAVK
- heat capacity change of unfolding (NaCl 1 M): 0.55 kcal/mol/K and 0.9 kcal/mol/K
- unfolding enthalpy (calorimetric) (NaCl 1 M): 49.7 kcal/mol and 39.3 kcal/mol and 33.7 kcal/mol
- Tm (NaCl 1M): 69 °C
- heat capacity change of unfolding (NaCl 1M): 0.55 kcal/mol/K
- unfolding enthalpy (calorimetric) (NaCl 1M): 42.8 kcal/mol
